Here are results for 1 molecule from publication PMC5833442, “Cooperation between Hsp90 and mortalin/GRP75 in resistance to cell death induced by complement C5b-9” (Cell Death & Disease, 2018).

In the experiment the target is T1, recombinant human Hsp90β (human, UniProt P08238 1-724).
T1 construct: Heat shock protein 90 beta (Hsp90β, constitutively expressed form, gene HSP90AB1), human, recombinant; Commercial protein; also called heat shock protein 90; purified Hsp90; source: bought: StressMarq (recombinant)
T1 sequence (P08238 whole entry): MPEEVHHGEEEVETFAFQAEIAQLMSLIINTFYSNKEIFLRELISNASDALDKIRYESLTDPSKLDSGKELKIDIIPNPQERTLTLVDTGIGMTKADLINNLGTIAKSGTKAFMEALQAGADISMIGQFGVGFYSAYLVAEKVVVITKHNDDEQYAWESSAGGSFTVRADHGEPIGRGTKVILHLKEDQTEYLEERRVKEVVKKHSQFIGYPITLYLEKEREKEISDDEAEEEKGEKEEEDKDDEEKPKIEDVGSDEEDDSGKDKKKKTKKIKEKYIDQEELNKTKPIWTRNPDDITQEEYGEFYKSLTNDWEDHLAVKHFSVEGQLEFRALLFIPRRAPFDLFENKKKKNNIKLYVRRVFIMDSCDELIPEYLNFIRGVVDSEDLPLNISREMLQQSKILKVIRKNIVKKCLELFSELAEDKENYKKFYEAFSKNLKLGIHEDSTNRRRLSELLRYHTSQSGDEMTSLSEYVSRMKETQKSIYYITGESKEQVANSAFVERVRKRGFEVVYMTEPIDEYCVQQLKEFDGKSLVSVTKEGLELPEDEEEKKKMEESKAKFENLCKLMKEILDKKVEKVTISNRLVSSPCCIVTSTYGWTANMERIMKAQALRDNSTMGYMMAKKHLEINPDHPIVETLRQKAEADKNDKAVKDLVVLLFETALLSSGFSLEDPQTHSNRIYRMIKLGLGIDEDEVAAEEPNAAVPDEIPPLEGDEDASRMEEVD
Description: co-sedimentation; Hsp90β mixed with C9 or BSA (1 µg each) in TBS, 1 h at 37 °C; sucrose density gradient (1–20% by text and methods, 10–30% by legend), 18 h ultracentrifugation, 4 °C; fractions dot blotted with anti-Hsp90β or anti-C9. The following applies: both partners purified.

B1: purified human C9 (natural protein)
chain: not shown
notes: Complement component C9, human, purified; also called complement C9; complement protein C9; source: bought: Complement Technology Inc. (purified human C9)
Regarding B1, the binding result is listed as “binds”.
